What was measured:
[1] = biological target: F_((ecto))-WT (1–513 aa) fused with the T4 fibritin trimerization domain (respiratory syncytial virus (strain of the construct not stated) | T4) (UniProt P03420); test: MST; RED-NHS-labelled F_((ecto)) protein at 50 nM pretreated with DMSO, IGF1R titrated from 30.6 pM to 2 µM, PBS, Monolith NT.115
[2] = biological target: F_((ecto))-K394R (F_((ecto))-WT with substitution of Lys394 with Arg394) fused with the T4 fibritin trimerization domain (respiratory syncytial virus (strain of the construct not stated) | T4) (UniProt P03420); test: as above

extracellular domain of the human IGF1R protein (Met 1−Asn 932) (from UniProt P08069 31-932) (domain or fragment)
Kd [1]: 11 nM | Kd [2]: 12 nM

Reference: article PMC11389407
